{"source": "patent US9176064B2", "about": "“Bisubstrate fluorescent probes for protein kinase CK2” (University of Tartu, priority 2012, dated 2015)", "test_in_all_cases": "Kinase panel residual activity", "format_in_all_cases": "biochemical", "conditions_in_all_cases": "compound at 1 micromolar", "key": {"IRR": {"target": "IRR (Homo sapiens, UniProt P14616)"}, "Lck": {"target": "Lck (Homo sapiens, UniProt P06239)"}, "RSK2": {"target": "RSK2 (Homo sapiens, UniProt P51812)", "sequence (P51812 whole entry, species assumed)": "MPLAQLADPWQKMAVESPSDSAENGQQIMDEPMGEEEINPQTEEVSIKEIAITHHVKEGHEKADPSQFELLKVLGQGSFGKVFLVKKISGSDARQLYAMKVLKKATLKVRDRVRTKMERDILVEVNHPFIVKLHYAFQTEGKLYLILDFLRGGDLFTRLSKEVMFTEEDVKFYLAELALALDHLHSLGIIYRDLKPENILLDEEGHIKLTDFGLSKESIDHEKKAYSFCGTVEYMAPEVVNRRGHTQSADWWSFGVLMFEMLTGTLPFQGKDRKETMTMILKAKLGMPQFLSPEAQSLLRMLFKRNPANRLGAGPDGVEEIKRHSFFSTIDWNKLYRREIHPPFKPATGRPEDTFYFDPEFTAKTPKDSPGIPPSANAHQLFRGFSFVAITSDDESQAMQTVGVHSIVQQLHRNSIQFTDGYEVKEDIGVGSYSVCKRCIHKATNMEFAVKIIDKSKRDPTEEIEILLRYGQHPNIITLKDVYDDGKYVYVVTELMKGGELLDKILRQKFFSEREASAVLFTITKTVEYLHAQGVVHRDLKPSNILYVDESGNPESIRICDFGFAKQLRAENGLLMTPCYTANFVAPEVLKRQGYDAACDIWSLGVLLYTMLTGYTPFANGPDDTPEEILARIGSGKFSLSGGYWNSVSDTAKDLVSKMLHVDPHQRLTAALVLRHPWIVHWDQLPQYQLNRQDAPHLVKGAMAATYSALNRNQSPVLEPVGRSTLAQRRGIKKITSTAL"}, "DAPK1": {"target": "DAPK1 (Homo sapiens, UniProt P53355)"}, "TSSK1": {"target": "T1, TSSK1 (Homo sapiens, UniProt Q9BXA7)", "T1 sequence (Q9BXA7 1-367)": "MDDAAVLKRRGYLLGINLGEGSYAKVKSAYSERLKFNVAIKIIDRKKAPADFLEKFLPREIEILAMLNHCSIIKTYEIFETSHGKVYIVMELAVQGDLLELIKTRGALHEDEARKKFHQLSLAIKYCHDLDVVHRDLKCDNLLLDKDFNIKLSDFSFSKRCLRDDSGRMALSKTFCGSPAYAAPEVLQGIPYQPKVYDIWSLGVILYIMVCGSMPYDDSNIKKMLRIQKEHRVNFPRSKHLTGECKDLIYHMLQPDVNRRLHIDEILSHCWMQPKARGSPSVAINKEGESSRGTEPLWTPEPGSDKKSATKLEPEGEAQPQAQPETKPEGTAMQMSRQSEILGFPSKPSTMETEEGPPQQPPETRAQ"}, "TTBK1": {"target": "TTBK1 (Homo sapiens, UniProt Q5TCY1)", "sequence (Q5TCY1 whole entry, species assumed)": "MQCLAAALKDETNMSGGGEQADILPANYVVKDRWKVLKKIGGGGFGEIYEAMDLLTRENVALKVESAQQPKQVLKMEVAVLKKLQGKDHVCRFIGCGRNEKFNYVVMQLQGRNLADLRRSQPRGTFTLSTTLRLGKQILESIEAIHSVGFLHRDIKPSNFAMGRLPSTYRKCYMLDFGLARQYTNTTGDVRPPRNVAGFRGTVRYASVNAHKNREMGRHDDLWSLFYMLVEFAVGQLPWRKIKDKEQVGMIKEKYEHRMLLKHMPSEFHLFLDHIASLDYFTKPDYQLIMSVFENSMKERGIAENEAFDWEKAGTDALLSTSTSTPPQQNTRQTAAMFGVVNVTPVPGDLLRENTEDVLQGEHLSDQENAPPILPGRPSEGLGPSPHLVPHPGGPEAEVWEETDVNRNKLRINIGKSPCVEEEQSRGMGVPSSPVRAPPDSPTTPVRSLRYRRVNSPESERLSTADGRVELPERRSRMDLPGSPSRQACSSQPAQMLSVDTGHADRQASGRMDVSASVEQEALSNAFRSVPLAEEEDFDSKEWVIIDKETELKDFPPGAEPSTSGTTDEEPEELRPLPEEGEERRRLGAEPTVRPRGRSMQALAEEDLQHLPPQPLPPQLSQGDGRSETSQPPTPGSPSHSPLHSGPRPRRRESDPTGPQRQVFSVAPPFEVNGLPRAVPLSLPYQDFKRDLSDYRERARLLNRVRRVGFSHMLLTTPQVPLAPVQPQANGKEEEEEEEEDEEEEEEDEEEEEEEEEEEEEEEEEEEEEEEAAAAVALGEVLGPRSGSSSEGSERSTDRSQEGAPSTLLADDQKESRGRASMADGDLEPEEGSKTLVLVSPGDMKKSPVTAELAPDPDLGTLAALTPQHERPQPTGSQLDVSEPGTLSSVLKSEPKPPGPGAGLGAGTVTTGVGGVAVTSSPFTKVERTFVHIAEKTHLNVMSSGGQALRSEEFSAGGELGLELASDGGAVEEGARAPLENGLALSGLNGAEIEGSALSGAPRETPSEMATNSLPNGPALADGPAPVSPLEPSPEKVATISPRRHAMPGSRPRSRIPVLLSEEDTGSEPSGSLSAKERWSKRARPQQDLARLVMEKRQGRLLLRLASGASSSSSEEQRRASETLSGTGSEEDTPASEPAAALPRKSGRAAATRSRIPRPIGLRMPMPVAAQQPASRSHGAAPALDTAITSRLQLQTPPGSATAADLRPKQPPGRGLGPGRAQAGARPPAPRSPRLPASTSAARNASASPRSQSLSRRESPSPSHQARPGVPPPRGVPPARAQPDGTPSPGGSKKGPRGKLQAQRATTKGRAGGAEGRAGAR"}, "CSK": {"target": "CSK (Homo sapiens, UniProt P41240)", "sequence (P41240 whole entry, species assumed)": "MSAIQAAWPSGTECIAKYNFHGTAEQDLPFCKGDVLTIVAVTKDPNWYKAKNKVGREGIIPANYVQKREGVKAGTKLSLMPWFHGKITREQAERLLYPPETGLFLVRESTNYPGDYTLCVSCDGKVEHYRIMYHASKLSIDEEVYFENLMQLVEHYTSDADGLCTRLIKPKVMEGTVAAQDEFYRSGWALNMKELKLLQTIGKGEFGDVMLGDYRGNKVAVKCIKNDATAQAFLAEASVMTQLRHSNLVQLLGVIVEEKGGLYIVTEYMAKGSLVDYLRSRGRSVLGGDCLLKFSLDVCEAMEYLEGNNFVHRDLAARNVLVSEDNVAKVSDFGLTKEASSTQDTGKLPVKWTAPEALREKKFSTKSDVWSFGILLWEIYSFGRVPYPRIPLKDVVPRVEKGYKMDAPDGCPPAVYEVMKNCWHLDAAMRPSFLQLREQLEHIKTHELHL"}, "TTBK2": {"target": "TTBK2 (Homo sapiens, UniProt Q6IQ55)", "sequence (Q6IQ55 whole entry, species assumed)": "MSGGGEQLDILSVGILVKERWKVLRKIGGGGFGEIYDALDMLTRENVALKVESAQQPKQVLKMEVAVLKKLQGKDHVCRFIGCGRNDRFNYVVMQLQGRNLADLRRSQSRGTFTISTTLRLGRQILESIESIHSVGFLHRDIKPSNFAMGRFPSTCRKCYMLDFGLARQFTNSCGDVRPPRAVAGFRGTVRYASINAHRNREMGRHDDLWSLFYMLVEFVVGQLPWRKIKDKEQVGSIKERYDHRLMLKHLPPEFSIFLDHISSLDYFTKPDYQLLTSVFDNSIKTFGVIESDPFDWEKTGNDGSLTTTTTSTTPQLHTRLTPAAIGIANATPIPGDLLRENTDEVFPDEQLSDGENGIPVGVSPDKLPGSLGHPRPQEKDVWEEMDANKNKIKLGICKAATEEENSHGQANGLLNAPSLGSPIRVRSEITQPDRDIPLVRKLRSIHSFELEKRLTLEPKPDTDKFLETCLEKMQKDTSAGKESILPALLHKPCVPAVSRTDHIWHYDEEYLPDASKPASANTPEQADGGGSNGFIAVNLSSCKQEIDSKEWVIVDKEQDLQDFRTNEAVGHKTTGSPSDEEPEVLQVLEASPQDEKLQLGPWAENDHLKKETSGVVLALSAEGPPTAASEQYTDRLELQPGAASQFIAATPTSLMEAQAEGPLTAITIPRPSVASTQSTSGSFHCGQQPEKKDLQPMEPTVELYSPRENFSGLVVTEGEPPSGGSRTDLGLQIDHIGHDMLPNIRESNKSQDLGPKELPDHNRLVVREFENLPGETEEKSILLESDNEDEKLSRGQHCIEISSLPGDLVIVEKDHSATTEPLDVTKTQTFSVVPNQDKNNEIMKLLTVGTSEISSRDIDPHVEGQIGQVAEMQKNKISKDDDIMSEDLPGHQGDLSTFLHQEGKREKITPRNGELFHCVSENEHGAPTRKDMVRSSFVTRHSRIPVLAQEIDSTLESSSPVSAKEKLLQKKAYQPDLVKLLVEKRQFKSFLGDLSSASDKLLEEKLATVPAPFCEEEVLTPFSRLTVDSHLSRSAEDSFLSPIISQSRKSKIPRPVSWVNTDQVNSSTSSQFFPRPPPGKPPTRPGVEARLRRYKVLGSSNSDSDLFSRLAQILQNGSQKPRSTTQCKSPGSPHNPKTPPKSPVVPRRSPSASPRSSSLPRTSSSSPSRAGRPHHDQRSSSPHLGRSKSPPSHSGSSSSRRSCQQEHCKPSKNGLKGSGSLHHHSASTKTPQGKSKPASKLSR"}, "MST2": {"target": "T2, MST2 (Homo sapiens, UniProt Q13188)", "T2 sequence (Q13188 1-491)": "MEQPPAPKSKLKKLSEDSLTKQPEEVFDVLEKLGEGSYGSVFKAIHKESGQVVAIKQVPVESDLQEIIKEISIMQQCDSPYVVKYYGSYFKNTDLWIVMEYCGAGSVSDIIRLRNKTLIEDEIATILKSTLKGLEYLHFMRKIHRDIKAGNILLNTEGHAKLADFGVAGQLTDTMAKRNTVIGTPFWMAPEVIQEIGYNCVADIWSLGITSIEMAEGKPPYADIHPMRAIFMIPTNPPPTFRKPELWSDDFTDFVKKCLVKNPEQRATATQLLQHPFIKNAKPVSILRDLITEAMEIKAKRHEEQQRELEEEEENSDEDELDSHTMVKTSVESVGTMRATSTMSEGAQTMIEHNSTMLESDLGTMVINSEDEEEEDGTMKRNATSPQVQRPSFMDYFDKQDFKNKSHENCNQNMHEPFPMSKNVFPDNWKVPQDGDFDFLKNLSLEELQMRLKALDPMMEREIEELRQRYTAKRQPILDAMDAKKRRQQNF"}, "MKK1": {"target": "MKK1 (Homo sapiens, UniProt Q02750)"}, "PAK2": {"target": "PAK2 (Homo sapiens, UniProt Q13177)", "sequence (Q13177 whole entry, species assumed)": "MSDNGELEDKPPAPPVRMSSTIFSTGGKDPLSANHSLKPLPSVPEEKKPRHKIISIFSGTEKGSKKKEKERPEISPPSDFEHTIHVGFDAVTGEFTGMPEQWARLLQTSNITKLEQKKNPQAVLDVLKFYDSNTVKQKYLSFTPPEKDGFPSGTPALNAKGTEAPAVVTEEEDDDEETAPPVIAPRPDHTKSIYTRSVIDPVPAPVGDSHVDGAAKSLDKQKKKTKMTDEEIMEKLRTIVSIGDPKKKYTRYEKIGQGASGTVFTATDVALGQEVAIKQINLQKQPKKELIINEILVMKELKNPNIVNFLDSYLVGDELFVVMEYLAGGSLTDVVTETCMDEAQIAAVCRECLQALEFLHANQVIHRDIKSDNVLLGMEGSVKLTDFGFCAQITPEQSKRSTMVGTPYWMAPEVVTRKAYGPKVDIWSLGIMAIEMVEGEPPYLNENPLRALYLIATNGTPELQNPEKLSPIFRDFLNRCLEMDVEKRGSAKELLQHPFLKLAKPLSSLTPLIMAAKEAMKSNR"}, "JNK1": {"target": "JNK1 (Homo sapiens, UniProt P45983)", "sequence (P45983 whole entry, species assumed)": "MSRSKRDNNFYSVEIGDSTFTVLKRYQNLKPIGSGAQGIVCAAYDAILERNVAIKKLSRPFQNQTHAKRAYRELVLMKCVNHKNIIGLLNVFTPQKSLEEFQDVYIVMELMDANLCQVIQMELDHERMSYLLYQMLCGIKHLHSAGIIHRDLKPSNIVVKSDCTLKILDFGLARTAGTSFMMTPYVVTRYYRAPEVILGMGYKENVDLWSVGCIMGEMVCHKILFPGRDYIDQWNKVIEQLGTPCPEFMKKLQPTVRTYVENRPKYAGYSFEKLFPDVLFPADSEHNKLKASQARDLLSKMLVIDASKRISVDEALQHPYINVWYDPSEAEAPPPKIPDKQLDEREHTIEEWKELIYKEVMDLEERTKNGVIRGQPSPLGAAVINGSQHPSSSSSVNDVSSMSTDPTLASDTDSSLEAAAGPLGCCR"}, "HER4": {"target": "HER4 (Homo sapiens, UniProt Q15303)"}, "MLK1": {"target": "MLK1 (Homo sapiens, UniProt P80192)"}, "ASK1": {"target": "T3, ASK1 (Homo sapiens, UniProt Q99683)", "T3 sequence (Q99683 1-1374)": "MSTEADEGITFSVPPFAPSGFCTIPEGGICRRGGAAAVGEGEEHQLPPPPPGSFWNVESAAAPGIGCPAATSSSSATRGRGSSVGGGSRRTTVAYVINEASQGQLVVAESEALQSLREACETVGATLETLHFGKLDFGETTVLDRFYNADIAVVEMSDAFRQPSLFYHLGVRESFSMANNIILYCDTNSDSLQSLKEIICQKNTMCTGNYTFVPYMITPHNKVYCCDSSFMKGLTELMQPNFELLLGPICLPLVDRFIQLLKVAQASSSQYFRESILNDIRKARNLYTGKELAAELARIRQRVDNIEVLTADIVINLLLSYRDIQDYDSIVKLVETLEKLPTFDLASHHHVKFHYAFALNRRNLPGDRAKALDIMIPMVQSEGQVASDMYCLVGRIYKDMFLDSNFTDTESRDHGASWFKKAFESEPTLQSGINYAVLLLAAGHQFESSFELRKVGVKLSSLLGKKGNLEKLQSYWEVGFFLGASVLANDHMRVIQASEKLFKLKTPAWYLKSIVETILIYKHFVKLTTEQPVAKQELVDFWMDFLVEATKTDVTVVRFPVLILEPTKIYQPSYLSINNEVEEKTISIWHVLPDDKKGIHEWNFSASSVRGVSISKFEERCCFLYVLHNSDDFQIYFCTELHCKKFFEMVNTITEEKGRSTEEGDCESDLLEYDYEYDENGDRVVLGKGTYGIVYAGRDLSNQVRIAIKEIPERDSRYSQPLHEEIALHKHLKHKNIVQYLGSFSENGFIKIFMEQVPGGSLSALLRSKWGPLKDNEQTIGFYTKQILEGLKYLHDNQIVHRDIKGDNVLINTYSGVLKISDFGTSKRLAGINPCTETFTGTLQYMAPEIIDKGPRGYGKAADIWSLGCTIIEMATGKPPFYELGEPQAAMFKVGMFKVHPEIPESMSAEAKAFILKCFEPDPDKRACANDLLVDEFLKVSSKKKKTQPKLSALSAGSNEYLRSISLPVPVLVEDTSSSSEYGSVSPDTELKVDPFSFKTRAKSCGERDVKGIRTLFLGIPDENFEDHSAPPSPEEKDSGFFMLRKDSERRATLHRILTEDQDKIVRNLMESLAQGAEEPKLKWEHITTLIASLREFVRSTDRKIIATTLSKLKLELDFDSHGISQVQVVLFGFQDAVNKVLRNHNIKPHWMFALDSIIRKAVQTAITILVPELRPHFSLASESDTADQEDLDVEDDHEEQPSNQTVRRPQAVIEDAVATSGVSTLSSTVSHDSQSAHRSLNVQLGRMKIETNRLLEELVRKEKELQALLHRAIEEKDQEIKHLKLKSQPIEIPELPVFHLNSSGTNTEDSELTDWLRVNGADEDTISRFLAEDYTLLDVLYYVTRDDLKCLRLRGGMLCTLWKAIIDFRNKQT"}}, "note": "Where a SMILES comes first, the peptide text is derived from it. [ ]: non-standard residue; d: D form. The star is where a group is joined. X1 = O=C(CCCCCCCn1cnc2c(Br)c(Br)c(Br)c(Br)c21)*"}
{"compound": "NCCCC[C@H](NC(=O)[C@H](CC(=O)O)NC(=O)[C@H](CC(=O)O)NC(=O)[C@H](CC(=O)O)NC(=O)[C@H](CC(=O)O)NC(=O)[C@H](CC(=O)O)NC(=O)[C@@H](CC(=O)O)NC(=O)CCCCCCCn1cnc2c(Br)c(Br)c(Br)c(Br)c21)C(=O)O", "note": "[TBBI-OcA-(D-Asp)-(L-Asp)5-(L-Lys)-OH] (X1-[dD]DDDDDK-OH)", "values": [{"measurement": "remaining activity at 1 µM", "setting": "IRR", "value": 55, "unit": "%"}, {"measurement": "remaining activity at 1 µM", "setting": "Lck", "value": 62, "unit": "%"}, {"measurement": "remaining activity at 1 µM", "setting": "RSK2", "value": 70, "unit": "%"}, {"measurement": "remaining activity at 1 µM", "setting": "DAPK1", "value": 84, "unit": "%"}, {"measurement": "remaining activity at 1 µM", "setting": "TSSK1", "value": 86, "unit": "%"}, {"measurement": "remaining activity at 1 µM", "setting": "TTBK1", "value": 90, "unit": "%"}, {"measurement": "remaining activity at 1 µM", "setting": "CSK", "value": 92, "unit": "%"}, {"measurement": "remaining activity at 1 µM", "setting": "TTBK2", "value": 95, "unit": "%"}, {"measurement": "remaining activity at 1 µM", "setting": "MST2", "value": 99, "unit": "%"}, {"measurement": "remaining activity at 1 µM", "setting": "MKK1", "value": 101, "unit": "%"}, {"measurement": "remaining activity at 1 µM", "setting": "PAK2", "value": 102, "unit": "%"}, {"measurement": "remaining activity at 1 µM", "setting": "JNK1", "value": 103, "unit": "%"}, {"measurement": "remaining activity at 1 µM", "setting": "HER4", "value": 103, "unit": "%"}, {"measurement": "remaining activity at 1 µM", "setting": "MLK1", "value": 112, "unit": "%"}, {"measurement": "remaining activity at 1 µM", "setting": "ASK1", "value": 114, "unit": "%"}]}
